Our source for the Kd values is US20070081998A1 (published 2007).

In assay [1] the target is T1, biotinylated ADDL (bADDL) (UniProt P05067 672-713, N-terminal biotin).
T1 construct: domain: Aβ1-42; Soluble oligomers of Aβ1-42; also called bADDLs; biotinylated high molecular weight ADDL
Briefly: BIACORE, bADDL as antigen; column IgG1 #1. A general note: Surface plasmon resonance follows binding to a sensor surface in real time, without labels.

In assay [2] the target is T1, biotinylated ADDL (bADDL). Nature of the assay: BIACORE, bADDL as antigen; column IgG1 #2.
The next assay deals with T2, biotin-Aβ1-20 (UniProt P05067 672-691, not fully specified; biotin (site not stated)).
T2 construct: domain: Aβ1-20; BIACORE antigen standing for monomeric Aβ peptide; also called biotinylated-Aβ1-20
T2 peptide (looked up): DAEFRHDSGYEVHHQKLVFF
Nature of the assay: BIACORE, Fab fragment against biotinylated-Aβ1-20.

The target of assay [3] is T1, biotinylated ADDL (bADDL). Nature of the assay: BIACORE, Fab fragment against bADDL.
Assay [4] has as its target T1, biotinylated ADDL (bADDL). Briefly: BIACORE, bADDL as antigen; column Fab.

B1: 20C2-6A IgG1 (antibody, V domains shown)
VH: QVTLKESGPALVKPTQTLTLTCTFSGFSLSTSGMGVGWIRQPPGKALEWLAHIWWDDDKSYNPSLKSRLTISKDTSKNQVVLTMTNMDPVDTATYYCARRQLGLRSIDAMDYWGQGTTVTVSS
VL: DVVMTQSPLSLPVTPGEPASISCRSSQSILHSNGNTYLEWYLQKPGQSPQLLIYKVSNRFSGVPDRFSGSGSGTDFTLKISRVEAEDVGVYYCFQSSRVPLTFGQGTKLEIK
notes: IgG1 humanized A version; also called 4P1-22
In general, Kd refers to the equilibrium constant for the complex coming apart. B1: the dissociation constant (Kd) in assay [1] was 0.0043 nM; in assay [2], 24 pM.

B2: 4b-H11 Fab (Fab, V domains shown)
VH: QVTLKESGPALVKPTQTLTLTCTLSGFSLSTSGMGVGWIRQPPGKALEWLAHIWWDDDKSYNPSLKSRLTISKDTSKNQVVLTMTNMDPVDTATYYCARRQLGRRSVDAMDYWGQGTTVTVSS
VL: DVVMTQSPLSLPVTPGEPASISCRSSQSILHSNGNTYLEWYLQKPGQSPQLLIYKVSNRFSGVPDRFSGSGSGTDFTLKISRVEAEDVGVYYCLQTTRVPLTFGQGTKLEIKR
As to B2, the dissociation constant (Kd) in the assay with biotin-Aβ1-20 stood at 1.33 nM; in assay [3], 1.05 nM.

B3: 20C2-6A Fab (Fab, V domains shown)
VH: QVTLKESGPALVKPTQTLTLTCTFSGFSLSTSGMGVGWIRQPPGKALEWLAHIWWDDDKSYNPSLKSRLTISKDTSKNQVVLTMTNMDPVDTATYYCARRQLGLRSIDAMDYWGQGTTVTVSS
VL: DVVMTQSPLSLPVTPGEPASISCRSSQSILHSNGNTYLEWYLQKPGQSPQLLIYKVSNRFSGVPDRFSGSGSGTDFTLKISRVEAEDVGVYYCFQSSRVPLTFGQGTKLEIKR
In turn, B3 yielded a dissociation constant (Kd) in assay [4] of 42 nM.

B4: 20C2-5A Fab (Fab, V domains shown)
VH: QVTLKESGPALVKPTQTLTLTCTFSGFSLSTSGMGVGWIRQPPGKALEWLAHIWWDDDKSYNPSLKSRLTISKDTSKNQVVLTMTNMDPVDTATYYCARRQLGLRSIDAMDYWGQGTTVTVSS
VL: DVVMTQSPLSLPVTPGEPASISCRSSQSILHSNGNTYLEWYLQKPGQSPQLLIYKVSNRFSGVPDRFSGSGSGTDFTLKISRVEAEDVGVYYCFQSSFVPLTFGQGTKLEIKR
Turning to B4, in assay [4], the Kd was 41 nM.

B5: 4b-A7 Fab (Fab, V domains shown)
VH: QVTLKESGPALVKPTQTLTLTCTLSGFSLSTSGMGVGWIRQPPGKALEWLAHIWWDDDKSYNPSLKSRLTISKDTSKNQVVLTMTNMDPVDTATYYCARRQLGKLALDAMDYWGQGTTVTVSS
VL: DVVMTQSPLSLPVTPGEPASISCRSSQSILHSNGNTYLEWYLQKPGQSPQLLIYKVSNRFSGVPDRFSGSGSGTDFTLKISRVEAEDVGVYYCLQTTRVPLTFGQGTKLEIKR
With B5, the equilibrium dissociation constant (Kd) with biotin-Aβ1-20 came to 1.72 nM; in assay [3], 0.376 nM.

B6: 20C28B Fab (Fab, V domains shown)
VH: QVTLKESGPALVKPTQTLTLTCTLSGFSLSTSGMGVGWIRQPPGKALEWLAHIWWDDDKSYNPSLKSRLTISKDTSKNQVVLTMTNMDPVDTATYYCARRQLGLRSIDAMDYWGQGTTVTVSS
VL: DVVMTQSPLSLPVTPGEPASISCRSSQSILHSNGNTYLEWYLQKPGQSPQLLIYKVSNRFSGVPDRFSGSGSGTDFTLKISRVEAEDVGVYYCLQTTRVPLTFGQGTKLEIKR
Turning to B6, the Kd (in the assay with biotin-Aβ1-20; in assay [3]) was 1.1 nM each time.

B7: 4a-A3 Fab (Fab, V domains shown)
VH: QVTLKESGPALVKPTQTLTLTCTLSGFSLSTSGMGVGWIRQPPGKALEWLAHIWWDDDKSYNPSLKSRLTISKDTSKNQVVLTMTNMDPVDTATYYCARRQLGTRGTDAMDYWGQGTTVTVSS
VL: DVVMTQSPLSLPVTPGEPASISCRSSQSILHSNGNTYLEWYLQKPGQSPQLLIYKVSNRFSGVPDRFSGSGSGTDFTLKISRVEAEDVGVYYCLQTTRVPLTFGQGTKLEIKR
In the case of B7, the figures for the Kd (in the assay with biotin-Aβ1-20; in assay [3]) were 0.849 nM and 0.0823 nM, respectively.

B8: 20C2-2A Fab (Fab, V domains shown)
VH: QVTLKESGPALVKPTQTLTLTCTFSGFSLSTSGMGVGWIRQPPGKALEWLAHIWWDDDKSYNPSLKSRLTISKDTSKNQVVLTMTNMDPVDTATYYCARRQLGLRSIDAMDYWGQGTTVTVSS
VL: DVVMTQSPLSLPVTPGEPASISCRSSQSILHSNGNTYLEWYLQKPGQSPQLLIYKVSNRFSGVPDRFSGSGSGTDFTLKISRVEAEDVGVYYCFQATRVPLTFGQGTKLEIKR
B8 came in with a Kd in assay [4] of 28 nM.

B9: 20C2-3A IgG1 (antibody, V domains shown)
VH: QVTLKESGPALVKPTQTLTLTCTFSGFSLSTSGMGVGWIRQPPGKALEWLAHIWWDDDKSYNPSLKSRLTISKDTSKNQVVLTMTNMDPVDTATYYCARRQLGLRSIDAMDYWGQGTTVTVSS
VL: DVVMTQSPLSLPVTPGEPASISCRSSQSILHSNGNTYLEWYLQKPGQSPQLLIYKVSNRFSGVPDRFSGSGSGTDFTLKISRVEAEDVGVYYCFQGSFIPGTFGQGTKLEIK
notes: IgG1 humanized A version; also called SJ-p3-16
B9 registered a Kd in assay [1] of 3.7 nM.

B10: 20C2-6B IgG1 (antibody, V domains shown)
VH: QVTLKESGPALVKPTQTLTLTCTLSGFSLSTSGMGVGWIRQPPGKALEWLAHIWWDDDKSYNPSLKSRLTISKDTSKNQVVLTMTNMDPVDTATYYCARRQLGLRSIDAMDYWGQGTTVTVSS
VL: DVVMTQSPLSLPVTPGEPASISCRSSQSILHSNGNTYLEWYLQKPGQSPQLLIYKVSNRFSGVPDRFSGSGSGTDFTLKISRVEAEDVGVYYCFQSSRVPLTFGQGTKLEIK
notes: IgG1 humanized B version; also called 4P1-22
B10 had an equilibrium dissociation constant (Kd) in assay [1] of 0.053 nM.

B11: 20C2-5A IgG1 (antibody, V domains shown)
VH: QVTLKESGPALVKPTQTLTLTCTFSGFSLSTSGMGVGWIRQPPGKALEWLAHIWWDDDKSYNPSLKSRLTISKDTSKNQVVLTMTNMDPVDTATYYCARRQLGLRSIDAMDYWGQGTTVTVSS
VL: DVVMTQSPLSLPVTPGEPASISCRSSQSILHSNGNTYLEWYLQKPGQSPQLLIYKVSNRFSGVPDRFSGSGSGTDFTLKISRVEAEDVGVYYCFQSSFVPLTFGQGTKLEIK
notes: IgG1 humanized A version; also called SJ-p2-1F
As to B11, the Kd in assay [1] stood at 0.317 nM; in assay [2], 68 pM.

B12: 20C2-8B IgG1 (antibody, V domains shown)
VH: QVTLKESGPALVKPTQTLTLTCTLSGFSLSTSGMGVGWIRQPPGKALEWLAHIWWDDDKSYNPSLKSRLTISKDTSKNQVVLTMTNMDPVDTATYYCARRQLGLRSIDAMDYWGQGTTVTVSS
VL: DVVMTQSPLSLPVTPGEPASISCRSSQSILHSNGNTYLEWYLQKPGQSPQLLIYKVSNRFSGVPDRFSGSGSGTDFTLKISRVEAEDVGVYYCLQTTRVPLTFGQGTKLEIK
notes: IgG1 humanized B version; also called SJ-p2-39
B12: the results for the equilibrium dissociation constant (Kd) in assay [1] and in assay [2] were 0.013 nM and 0.8 pM, respectively.

B13: 20C2-1A IgG1 (antibody, V domains shown)
VH: QVTLKESGPALVKPTQTLTLTCTFSGFSLSTSGMGVGWIRQPPGKALEWLAHIWWDDDKSYNPSLKSRLTISKDTSKNQVVLTMTNMDPVDTATYYCARRQLGLRSIDAMDYWGQGTTVTVSS
VL: DVVMTQSPLSLPVTPGEPASISCRSSQSILHSNGNTYLEWYLQKPGQSPQLLIYKVSNRFSGVPDRFSGSGSGTDFTLKISRVEAEDVGVYYCFQASRVPLTFGQGTKLEIK
notes: IgG1 humanized A version; also called SJ-p2-60
The molecule B13 registered a dissociation constant Kd in assay [1] of 0.075 nM.

B14: 20C2-8A IgG1 (antibody, V domains shown)
VH: QVTLKESGPALVKPTQTLTLTCTFSGFSLSTSGMGVGWIRQPPGKALEWLAHIWWDDDKSYNPSLKSRLTISKDTSKNQVVLTMTNMDPVDTATYYCARRQLGLRSIDAMDYWGQGTTVTVSS
VL: DVVMTQSPLSLPVTPGEPASISCRSSQSILHSNGNTYLEWYLQKPGQSPQLLIYKVSNRFSGVPDRFSGSGSGTDFTLKISRVEAEDVGVYYCLQTTRVPLTFGQGTKLEIK
notes: IgG1 humanized A version; also called SJ-p2-39
Take B14: the figures for the Kd in assay [1] and in assay [2] were 0.003 nM and 0.7 pM, respectively.

B15: 20C2-2A IgG1 (antibody, V domains shown)
VH: QVTLKESGPALVKPTQTLTLTCTFSGFSLSTSGMGVGWIRQPPGKALEWLAHIWWDDDKSYNPSLKSRLTISKDTSKNQVVLTMTNMDPVDTATYYCARRQLGLRSIDAMDYWGQGTTVTVSS
VL: DVVMTQSPLSLPVTPGEPASISCRSSQSILHSNGNTYLEWYLQKPGQSPQLLIYKVSNRFSGVPDRFSGSGSGTDFTLKISRVEAEDVGVYYCFQATRVPLTFGQGTKLEIK
notes: IgG1 humanized A version; also called SJ-p1-18
For B15, the Kd came out at 0.015 nM in assay [1] and 0.3 pM in assay [2].

B16: 20C2-24A IgG1 (antibody, V domains shown)
VH: QVTLKESGPALVKPTQTLTLTCTFSGFSLSTSGMGVGWIRQPPGKALEWLAHIWWDDDKSYNPSLKSRLTISKDTSKNQVVLTMTNMDPVDTATYYCARRQLGLRSIDAMDYWGQGTTVTVSS
VL: DVVMTQSPLSLPVTPGEPASISCRSSQSILHSNGNTYLEWYLQKPGQSPQLLIYKVSNRFSGVPDRFSGSGSGTDFTLKISRVEAEDVGVYYCGQTTLVPLTFGQGTKLEIK
notes: IgG1 humanized A version; also called SJ-p2-44
B16 came in with a Kd in assay [1] of 0.114 nM.

B17: Mouse-20C2 Fab (Fab, V domains shown)
VH: QVTLKESGPGILKPSQTLSLTCSLSGFSLSTSGMGVGWFRQPSGKGLEWLAHIWWDDDKSYNPSLKSRLTISKYTSRNQVFLTITSVDTADTATYYCARRQLGLRSIDAMDYWGQGTSVTVSS
VL: DVLMTQTPLSLPVSLGDQASISCRSSQSILHSNGNTYLEWYLQKPGQSPKLLIYKVSNRFSGVPDRFSGSGSGTDFTLKISRVEAEDLGVYYCFQGSLVPLTFGAGTKLELK
notes: Value in the Fab column of the row Mouse-20C2; also called murine 20C2
Take B17: the affinity in assay [4], expressed as Kd, was 62 nM.

B18: Mouse-20C2 antibody (IgG1) (antibody, V domains shown)
VH: QVTLKESGPGILKPSQTLSLTCSLSGFSLSTSGMGVGWFRQPSGKGLEWLAHIWWDDDKSYNPSLKSRLTISKYTSRNQVFLTITSVDTADTATYYCARRQLGLRSIDAMDYWGQGTSVTVSS
VL: DVLMTQTPLSLPVSLGDQASISCRSSQSILHSNGNTYLEWYLQKPGQSPKLLIYKVSNRFSGVPDRFSGSGSGTDFTLKISRVEAEDLGVYYCFQGSLVPLTFGAGTKLELK
notes: value in the column IgG1 #1; also called murine 20C2
Regarding B18, binding in assay [1] was put at a Kd of 4.1 nM.
